Data on 19 molecules can be found in patent US20260151494A1 (ARO BIOTHERAPEUTICS, published 2026).

The target in assay [1] is T1, human CD71 extracellular domain (human, UniProt P02786 89-760).
T1 construct: also called hCD71; human CD71-ECD
Description: primary ELISA. (In general: In an ELISA, binding on a coated surface is turned into a signal by an enzyme label.)

Assay [2] concerns the target T2, apical domain of cynomolgus CD71 (cynomolgus, UniProt A0A2K5X958 189-383).
T2 construct: domain: apical domain; also called Cyno apical domain
As to the kind of experiment: primary ELISA. Note: test concentration or dose not given here.

Assay [3] has as its target T1, human CD71 extracellular domain. As to the kind of experiment: primary ELISA, signal ratio to HSA.
The target in assay [4] is T2, apical domain of cynomolgus CD71. As to the kind of experiment: primary ELISA, signal ratio to HSA.

T2 sequence (A0A2K5X958 entry or part of it): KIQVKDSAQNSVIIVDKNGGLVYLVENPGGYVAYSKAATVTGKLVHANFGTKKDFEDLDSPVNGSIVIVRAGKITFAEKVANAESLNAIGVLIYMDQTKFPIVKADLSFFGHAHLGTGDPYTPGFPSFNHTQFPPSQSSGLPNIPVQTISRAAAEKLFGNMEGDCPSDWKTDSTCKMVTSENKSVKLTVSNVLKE
T1 sequence (P02786 89-760): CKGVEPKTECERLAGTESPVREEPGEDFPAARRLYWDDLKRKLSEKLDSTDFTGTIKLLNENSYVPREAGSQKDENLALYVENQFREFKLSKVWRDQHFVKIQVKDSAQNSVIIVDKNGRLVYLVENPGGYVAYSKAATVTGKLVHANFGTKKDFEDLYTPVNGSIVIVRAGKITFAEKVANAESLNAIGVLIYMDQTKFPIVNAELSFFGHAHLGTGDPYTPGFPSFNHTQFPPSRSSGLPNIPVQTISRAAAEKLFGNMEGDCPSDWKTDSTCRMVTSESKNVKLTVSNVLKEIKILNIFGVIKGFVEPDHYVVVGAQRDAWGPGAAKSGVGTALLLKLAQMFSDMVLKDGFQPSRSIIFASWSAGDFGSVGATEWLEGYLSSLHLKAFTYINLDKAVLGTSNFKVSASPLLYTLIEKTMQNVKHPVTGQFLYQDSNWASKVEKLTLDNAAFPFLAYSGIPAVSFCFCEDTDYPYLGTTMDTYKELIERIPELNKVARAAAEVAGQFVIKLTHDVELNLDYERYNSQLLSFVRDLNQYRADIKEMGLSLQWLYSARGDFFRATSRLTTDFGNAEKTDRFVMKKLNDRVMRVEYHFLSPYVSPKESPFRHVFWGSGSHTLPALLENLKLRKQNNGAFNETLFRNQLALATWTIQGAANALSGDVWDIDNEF

B1: CD71-binding FN3 domain of SEQ ID NO: 151 (designed binder)
chain: MSLPAPKNLVVSRITEDSARLSWTAPDAAFDSFEIAYFETCRTGEAIVLTVPGSERSYDLTGLKPGTEYRVWIGGVKGGVWSRPLSAIVTT
In the case of B1, the RLU in assay [1] was determined as 4.04e+06 RLU; in assay [2], 5.1e+06 RLU. In addition, the “hCD71:HSA” value in assay [3] is 22. Also, in assay [4], the “Cyno apical domain:HSA” value turned out to be 28.

B2: CD71-binding FN3 domain of SEQ ID NO: 160 (designed binder)
chain: MSLPAPKNLVVSRVTEDSARLSWTAPDAAFDSFEIGYFENLYLGEAIVLTVPGSERSYDLTGLKPGTEYWVQIGGVKGGNWSVPLSAIFTT
Regarding B2, the values for the RLU in assay [1] and in assay [2] were 4.38e+06 RLU and 5.02e+06 RLU, respectively. Further, the “hCD71:HSA” value in assay [3] is 88. The “Cyno apical domain:HSA” value in assay [4] worked out at 100.

B3: CD71-binding FN3 domain of SEQ ID NO: 166 (designed binder)
chain: MSLPAPKNLVVSRVTEDSARLSWTAPDAAFDSFEIGYFENLYLGEAIVLTVPGSERSYDLTGLKPGTEYWVQIGGIKGGNWSAPLSAIFTT
B3: the RLU worked out at 4.44e+06 RLU in assay [1] and 5.02e+06 RLU in assay [2]. For the same molecule, the “hCD71:HSA” value in assay [3] was 153. Also, the “Cyno apical domain:HSA” value in assay [4] came out at 173.

B4: CD71-binding FN3 domain of SEQ ID NO: 170 (designed binder)
chain: MSLPAPKNLVVSRVTEDSARLSWTAPDAAFDSFEIGYFENLYLGEAIVLTVPGSERSYDLTGLKPGTEYWVQIGGVKGGNWSTPLSAIFTT
As for B4, the RLU in assay [1] stood at 3.81e+06 RLU; in assay [2], 5e+06 RLU. Further, in assay [3], the “hCD71:HSA” value came out at 127. In assay [4], the “Cyno apical domain:HSA” value was found to be 166.

B5: CD71-binding FN3 domain of SEQ ID NO: 159 (designed binder)
chain: MSLPAPKNLVVSRVTEDSARLSWTAPDAAFDSFEIVYQENSAYGEAIVLTVPGSERSYDLTGLKPGTEYWVQIGGVKGGNWSAPLSAISTT
B5: the values for the RLU in assay [1] and in assay [2] were 2.64e+06 RLU and 4.77e+06 RLU, respectively. In assay [3], the “hCD71:HSA” value came to 40. In addition, the “Cyno apical domain:HSA” value in assay [4] stood at 72.

B6: CD71-binding FN3 domain of SEQ ID NO: 173 (designed binder)
chain: MSLPAPKNLVVSRVTEDSARLSWTAPDAAFDSFEIAYQELSLWGEAIVLTVPGSERSYDLTGLKPGTEYYVHIGGVKGGIWSSPLVAHFTT
For B6, the RLU in assay [1] turned out to be 4.41e+06 RLU; in assay [2] it was 5.65e+06 RLU. Besides, the “hCD71:HSA” value in assay [3] was 234. Moreover, in assay [4], the “Cyno apical domain:HSA” value was determined as 300.

B7: CD71-binding FN3 domain of SEQ ID NO: 171 (designed binder)
chain: MSLPAPKNLVVSRVTEDSARLSWTAPDAAFDSFEIGYFENLYLGEAIVLTVPGSERSYDLTGLKPGTEYWVQIGGVKGGEWSSPLSAIFTT
Consider B7, for which the RLU in assay [1] was determined as 4.4e+06 RLU; in assay [2], 4.93e+06 RLU. Also, the “hCD71:HSA” value in assay [3] was 109. Moreover, in assay [4], the “Cyno apical domain:HSA” value turned out to be 122.

B8: CD71-binding FN3 domain of SEQ ID NO: 176 (designed binder)
chain: MSLPAPKNLVVSRVTEDSARLSWTAPDAAFDSFFIGYLEPQPPGEAIHLFVPGSERSYDLTGLKPGTEYWVQIGGVKGGNWSAPLSAIFTT
Consider B8, for which the RLU in assay [1] is 7.01e+06 RLU; in assay [2], 6.06e+06 RLU. Besides, in assay [3], the “hCD71:HSA” value came out at 172. The “Cyno apical domain:HSA” value in assay [4] was determined as 149.

B9: CD71-binding FN3 domain of SEQ ID NO: 175 (designed binder)
chain: MSLPAPKNLVVSRVTEDSARLSWTAPDAAFDSFEIAYQELSLWGEAIVLTVPGSERSYDLTGLKPGTEYVVFIGGVKGGVWSVPLSAIFTT
As for B9, the RLU in assay [1] amounted to 1.01e+06 RLU; in assay [2], 4.29e+06 RLU. Besides, the “hCD71:HSA” value in assay [3] was 21. The “Cyno apical domain:HSA” value in assay [4] turned out to be 91.

B10: CD71-binding FN3 domain of SEQ ID NO: 169 (designed binder)
chain: MSLPAPKNLVVSRVTEDSARLSWTAPDAAFDSFEIGYFENLYLGEAIVLTVPGSERSYDLTGLKPGTEYWVQIGGVKGGNWSAPLSATFTT
On to B10, for which the results for the RLU in assay [1] and in assay [2] were 2.63e+06 RLU and 4.35e+06 RLU, respectively. In assay [3], the “hCD71:HSA” value turned out to be 289. For the same molecule, the “Cyno apical domain:HSA” value in assay [4] was 478.

B11: CD71-binding FN3 domain of SEQ ID NO: 172 (designed binder)
chain: MSRPAPKNLVVSRVTEDSARLSWTAPGAAFDSFEIAYFERTWFGEAIVLTVPSSERSYDLTGLKPGTEYWVQIGGVKGGDWSKPLSAIFTT
In the case of B11, the RLU in assay [1] came to 4.34e+06 RLU; in assay [2] it was 5.23e+06 RLU. Further, the “hCD71:HSA” value in assay [3] worked out at 31. The “Cyno apical domain:HSA” value in assay [4] came to 37.

B12: CD71-binding FN3 domain of SEQ ID NO: 174 (designed binder)
chain: MSLPAPKNLVVSRVTEDSARLSWTAPNAAFDSFEIGYFENLYLGEAIVLTVPGSERSYDLTGLKPGTEYWVQIGGVKGGNWSAPLSAIFTT
As to B12, the RLU in assay [1] was found to be 3.61e+06 RLU; in assay [2], 4.71e+06 RLU. Besides, the “hCD71:HSA” value in assay [3] is 127. Moreover, the “Cyno apical domain:HSA” value in assay [4] is 165.

B13: CD71-binding FN3 domain of SEQ ID NO: 157 (designed binder)
chain: MSLPAPKNLVVSRVTEDSARLSWTAPDAAFDSFEIGYGEFTYYGEAIVLTVPGSERSYDLTGLKPGTEYWVQIGGVKGGNWSNPLSAIFTT
For B13, the RLU was found to be 2.89e+06 RLU in assay [1] and 4.32e+06 RLU in assay [2]. In addition, the “hCD71:HSA” value in assay [3] worked out at 355. Moreover, in assay [4], the “Cyno apical domain:HSA” value amounted to 530.

B14: CD71-binding FN3 domain of SEQ ID NO: 156 (designed binder)
chain: MSLPAPKNLVVSRVTEDSARLSWTAPDAAFDSFEIGYFEMSWTGEAIVLTVPGSERSYDLTGLKPGTEYVVFIGGVKGGNWSAPLSAIFTT
With B14, the results for the RLU in assay [1] and in assay [2] were 3.68e+06 RLU and 4.43e+06 RLU, respectively. Besides, in assay [3], the “hCD71:HSA” value came out at 69. The “Cyno apical domain:HSA” value in assay [4] was determined as 83.

B15: CD71-binding FN3 domain of SEQ ID NO: 177 (designed binder)
chain: MSLPAPKNLVVSRVTEDSARLSWTAPDAAFDSFEIGYFENLYLGEAIVLTVPGSERSYDLTSLKPGTEYWVQIGGVKGGNWSAPLSAIFTT
For the molecule B15, the results for the RLU in assay [1] and in assay [2] were 3.22e+06 RLU and 4.54e+06 RLU, respectively. The “hCD71:HSA” value in assay [3] was determined as 110. For the same molecule, the “Cyno apical domain:HSA” value in assay [4] came to 156.

B16: CD71-binding FN3 domain of SEQ ID NO: 158 (designed binder)
chain: MSLPAPKNLVVSRVTEDSARLSWTAPDAAFDSFEIAYFERTWFGEAIVLTVPGSERSYDLTGLKPGTEYWVQIGGVKGGDWSKPLSAIFTT
In the case of B16, the RLU stood at 4.48e+06 RLU in assay [1] and 4.63e+06 RLU in assay [2]. Moreover, in assay [3], the “hCD71:HSA” value was determined as 96. Further, the “Cyno apical domain:HSA” value in assay [4] was 99.

B17: CD71-binding FN3 domain of SEQ ID NO: 152 (designed binder)
chain: MSLPAPKNLVVSRVTEDSARLSWTAPDAAFDSFDIGYFEATYYGEAIVLTVPGSERSYDLTGLKPGTEYWVQIGGVKGGNWSAPLSAIFTT
With B17, the RLU amounted to 2.36e+06 RLU in assay [1] and 4.21e+06 RLU in assay [2]. For the same molecule, the “hCD71:HSA” value in assay [3] turned out to be 164. Moreover, in assay [4], the “Cyno apical domain:HSA” value is 291.

B18: CD71-binding FN3 domain of SEQ ID NO: 164 (designed binder)
chain: MSLPAPKNLVVSRVTEDSARLSWTAPDAAFDSFFIGYLEPQPPGEAIHLYVPGSERSYDLTGLKPGTEYWVQIGGVKGGNWSAPLSAIFTT
For B18, the RLU in assay [1] amounted to 5.55e+06 RLU; in assay [2], 3.78e+06 RLU. Further, in assay [3], the “hCD71:HSA” value was found to be 286. Further, the “Cyno apical domain:HSA” value in assay [4] amounted to 195.

B19: CD71-binding FN3 domain of SEQ ID NO: 155 (designed binder)
chain: MSLPAPENLVVSRVTEDSARLSWTAPDAAFDSFEIGYFENLYLGEAIVLTVPGSERSYDLTGLKPGTEYWVQIGGVKGGVWSRPLSAIFTT
As to B19, the results for the RLU in assay [1] and in assay [2] were 3.55e+06 RLU and 5.19e+06 RLU, respectively. Further, the “hCD71:HSA” value in assay [3] is 151. Besides, in assay [4], the “Cyno apical domain:HSA” value worked out at 220.
